Measurements as given in the supplement of paper PMC12764529.
± gives the half width of the 95% confidence interval.

test: folding stability dG unfold from chymotrypsin proteolysis; higher = more stable
How it was run: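 Only designs with AlphaFold2 dimer inter-PAE above 15 were retained; each was a mini-protein under 80 residues with no cysteine, in a PA-tagged cDNA display construct. After digestion with trypsin and chymotrypsin and sequencing, K50 was inferred by Bayesian fitting of counts, and unfolding free energy was derived per protease or combined against a sequence-predicted unfolded-state K50 and a shared folded-state K50.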

| Sequence | folding stability dG unfold |
| --- | --- |
| SAGGSAAITFPSDKTATVLSEEYDPVKKTTTVKMKVGNKEVTATLSPDGTVTIKLPDGKEETYPVGSAGGSA [r15_111_JUSTAS] | 1.41 ± 0.016 kcal/mol |
| SAMKIVEIVEYDKEKKKIRIKIEVNGKLLEIEIEAESEEEVEEALKKLKEELEFELPDGKKVRITEIEISAG [r14_422_TrROS_Hall] | 2.08 ± 0.14 kcal/mol |
| SAGGSAGGSAGGPRMTVVDLDPEKGDHLYLVEIPDTNEVVLVSSSELLRLAEAGPVELKGSAGGSAGGSAGG [r7_452_TrMRF] | 0.115 ± 0.062 kcal/mol |
| SAGKTVEIKVTLKITRYEKLPDGSVKKEVKTLTITVTMSEEELNKEEIKNALKELLEKLPPDVKKIEITSAG [r5_849_TrROS_Hall] | 4.63 ± 0.083 kcal/mol |
| SAGGSAGGEDRLLLRVEVIVGGVPFEPVLEVDHPELRELLEEGRVLVVELPGGAVGRLYAEPLASAGGSAGG [r6_478_TrMRF] | 0.704 ± 0.11 kcal/mol |
| SMKKNTLTLTVKVKVTVTVVKKKKDGKEEVVKKETVEVTVKVTFLSKEELEKLKKELEKLKKELEELKKKSA [r9_1192_TrROS_Hall] | 4.7 ± 0.27 kcal/mol |
| SAGGNSMTILFIFPENGWIIRITIKFPDGNGKIDDIDIEREPVPNGQVKYTIRMPDGMEISVEIIPLDSAGG [r13_515_TrROS] | 5.57 ± 0.15 kcal/mol |
| SAGDAIADLLKEAGFEIDSVDSIEPTDGSYVIGFKFEFPNGWYMEITIWIDPNNPDKIEIDIKMQPPDESAG [r5_683_TrROS] | 4.43 ± 0.33 kcal/mol |
| SAGGSAMIEEKLIEIPPIPVPYPDGSVQKVPVLVEETVELKPFIDPNTDKTSTAKTVTKRKVIFPSSAGGSA [r15_884_JUSTAS] | 0.76 ± 0.084 kcal/mol |
| SAYRIEIEIPSPKLAKKLEALLPPNYRIDNVRRNKNDNQVKITVEYDPGMPPSRMRRIHKEIKELIKELSAG [r14_306_TrROS] | 2.24 ± 0.077 kcal/mol |
| SAGGSAGGSAGGSGMTSTTYRLPEGNVVLVETFDPATGTVTLEIRGPPSVERTLTLPVASAGGSAGGSAGGS [r4_443_JUSTAS] | 3.64 ± 0.088 kcal/mol |
| SAGGSAGGSAGGEIKSGDKVVLVFNEDGKGYKAYYEEELEKLLKEDPKIKKVLVVDVPAESAGGSAGGSAGG [r7_118_TrMRF] | -1.04 ± 0.77 kcal/mol |
| SAGGSAGGSAGKVVLAKAKVTPPDGSEYEFDLAIEVPDDVVLVVGLHFDYPDQVDFVFEGSAGGSAGGSAGG [r11_781_TrMRF] | 1.14 ± 0.017 kcal/mol |
| SAGGSAGGSAGPKIKIKKFPDFLIAEIEFPDGKKATAIFDPKTGKIIVFVGDKPIEIDIGSAGGSAGGSAGG [r11_846_TrMRF] | 3.49 ± 0.09 kcal/mol |
| SAGGSAGGSAGGSNDNVVPITILFVDPGKDDRLYLREIRLRIYENGDIEAEVKVYELPLSAGGSAGGSAGGS [r10_598_TrMRF] | 4.12 ± 0.075 kcal/mol |
| SAGGSAGGKAKIKKIEVELNEDGTLKVTAYDEETNEKITLEVKLPKPKPVYFDEEKLKEELEKKSAGGSAGG [r6_627_TrROS_Hall] | 0.963 ± 0.14 kcal/mol |

| Sequence | folding stability dG unfold |
| --- | --- |
| SAGGSIEEAKKAAEKLAKEIAEKKGWTVKSVEVEKLPDGTVRATITIKYPDGSEETIEVTIPPNTPLSAGGS [r8_175_JUSTAS] | 0.954 ± 0.039 kcal/mol |
| SAGGSAGGSAGGENPEYKPKLLVLVKLEVNGEYYYREFETLEELENYNDPNLKVVAVADLSAGGSAGGSAGG [r7_793_TrMRF] | 0.653 ± 0.11 kcal/mol |
| SAGGSLPELLKLAKELAKKLGAKDLTAKESGEITIKSPENITITVSTEDGEPVVTINNTSTSSTIPLSAGGS [r16_296_JUSTAS] | -0.185 ± 0.22 kcal/mol |
| SAGGSAGGSAGMKLPEGWEIVAVYRDKETNKLYLIVRDTKTKKLLIVDLDTKKIISAEELSAGGSAGGSAGG [r11_268_TrROS_Hall] | 4.1 ± 0.13 kcal/mol |
| SAGGSAGGSAGGSSYQLKLEAEFLVGDSSGKLYKVKLTITVNEDGSISIDLEVLSVFDVSAGGSAGGSAGGS [r4_496_TrMRF] | 5.46 ± 0.11 kcal/mol |
| SAGGSALPALAERFPDAEIEPVGDDGTSVTYRFRFPGGDYLLVTVPFLPGTTEAVVDIEWVPRDALSAGGSA [r15_547_TrMRF] | 2.628 ± 0.012 kcal/mol |
| SEFELKIEEEEDPATGVLRVTVTFNTSLEDAKEKLKELLKESGLNAVIKSVEEKKVGPEVTITFEIEIPPSA [r9_164_JUSTAS] | 3.27 ± 0.052 kcal/mol |
| SAGYKATIIPPDGSEVTIDVKAEDLGPLVEELEKAGLKVESLEVSPDGTAVIPVTSPDGKPYLIVIDLKSAG [r5_645_TrMRF] | 0.305 ± 0.11 kcal/mol |
| SAGGSARRPFNVEAWYPPGRSADNVADELASHFFGIKIDDVEVEPNPDNGYYKIEATIRIPPDWLKSAGGSA [r15_930_TrROS] | 0.528 ± 0.29 kcal/mol |
| SAGGSAGGSAGGGVTLPTGDIVVPVEYTTTVPVLTYNPTLGVSYFFTLTVTTSSTVYVGLSAGGSAGGSAGG [r7_374_JUSTAS] | 3.868 ± 0.026 kcal/mol |
| SAGGSAGGSAKIIVNEDGYLIKITNKNGKEITIEMSEDELKELLKKLGIKKAEIVPLPKEKSAGGSAGGSAG [r3_141_TrROS_Hall] | 2.34 ± 0.093 kcal/mol |
| SAGGSAGGMIEVSYDPVKNRYIATFKFPEGEVTITLPADLSPEEKAAAIKAAAEAAAKEKGIKLSAGGSAGG [r6_679_JUSTAS] | 2 ± 0.05 kcal/mol |
| SAGGEIEILLEDGTLLRIRVELDEDGNLRVTVELFRLEPPPAPEVVVERREEREERRVLFADSAEDLSAGGS [r16_802_TrROS_Hall] | 2.27 ± 0.1 kcal/mol |
| SAGMPIRVRLLVERPALDPETGEPVVERREVVLTLHPEEIASGIPVEELAKELEKAFPGAKVTVLEVSSAGG [r19_110_TrMRF] | 3.77 ± 0.044 kcal/mol |
| SAGGSAGGGAVVLEEAFDPVRPERLVLVEVVNEKGEPFRFPVPLEDLEAVFEKLPPGFPVLVLPSAGGSAGG [r6_111_TrMRF] | 0.135 ± 0.1 kcal/mol |
